Experimental data reported in article PMC8167298, “Structural Investigations of Human A2M Identify a Hollow Native Conformation That Underlies Its Distinctive Protease-Trapping Mechanism” (Molecular & Cellular Proteomics : MCP, 2021).

Columns and labels:
[1] = biological target: the molecule itself; experiment: nonreducing SDS-PAGE; nonreducing SDS-PAGE on 5 to 15% gradient gels; shows disulfide-linked oligomers; DSSO-cross-linked A2M-MA defines the dimer and tetramer bands
[2] = biological target: the molecule itself; experiment: negative stain electron microscopy; A2M at 78 μg/ml on carbon-coated copper grids, 2% w/v uranyl formate; 2D classes and 3D refinement with D2 symmetry imposed, 24 Å map
[3] = biological target: the molecule itself; experiment: SEC; Sephacryl S-300 HR column in HBS, samples after DSSO cross-linking

Protein	stoichiometry N [1]	stoichiometry N [2]	stoichiometry N [3]
Human α2-macroglobulin (A2M), native conformation, plasma-purified (natural protein, UniProt P01023 24-1474, looked up, intact thiol ester between the cysteine and glutamine of the CGEQ motif; N-glycans; intersubunit Cys278/Cys431 disulfides in each disulfide-bridged dimer, α2-macroglobulin, human, from plasma; original N-terminus at position 24; Homotetramer of 720 kDa, a dimer of disulfide-bridged dimers; In the cross-linking, SEC and native PAGE rows the protein carried DSSO cross-links; SAXS was also measured on deglycosylated A2M; also called native A2M; plasma A2M; source: purified from plasma from a healthy volunteer, never frozen) SVSGKPQYMVLVPSLLHTETTEKGCVLLSYLNETVTVSASLESVRGNRSLFTDLEAENDVLHCVAFAVPKSSSNEEVMFLTVQVKGPTQEFKKRTTVMVKNEDSLVFVQTDKSIYKPGQTVKFRVVSMDENFHPLNELIPLVYIQDPKGNRIAQWQSFQLEGGLKQFSFPLSSEPFQGSYKVVVQKKSGGRTEHPFTVEEFVLPKFEVQVTVPKIITILEEEMNVSVCGLYTYGKPVPGHVTVSICRKYSDASDCHGEDSQAFCEKFSGQLNSHGCFYQQVKTKVFQLKRKEYEMKLHTEAQIQEEGTVVELTGRQSSEITRTITKLSFVKVDSHFRQGIPFFGQVRLVDGKGVPIPNKVIFIRGNEANYYSNATTDEHGLVQFSINTTNVMGTSLTVRVNYKDRSPCYGYQWVSEEHEEAHHTAYLVFSPSKSFVHLEPMSHELPCGHTQTVQAHYILNGGTLLGLKKLSFYYLIMAKGGIVRTGTHGLLVKQEDMKGHFSISIPVKSDIAPVARLLIYAVLPTGDVIGDSAKYDVENCLANKVDLSFSPSQSLPASHAHLRVTAAPQSVCALRAVDQSVLLMKPDAELSASSVYNLLPEKDLTGFPGPLNDQDNEDCINRHNVYINGITYTPVSSTNEKDMYSFLEDMGLKAFTNSKIRKPKMCPQLQQYEMHGPEGLRVGFYESDVMGRGHARLVHVEEPHTETVRKYFPETWIWDLVVVNSAGVAEVGVTVPDTITEWKAGAFCLSEDAGLGISSTASLRAFQPFFVELTMPYSVIRGEAFTLKATVLNYLPKCIRVSVQLEASPAFLAVPVEKEQAPHCICANGRQTVSWAVTPKSLGNVNFTVSAEALESQELCGTEVPSVPEHGRKDTVIKPLLVEPEGLEKETTFNSLLCPSGGEVSEELSLKLPPNVVEESARASVSVLGDILGSAMQNTQNLLQMPYGCGEQNMVLFAPNIYVLDYLNETQQLTPEIKSKAIGYLNTGYQRQLNYKHYDGSYSTFGERYGRNQGNTWLTAFVLKTFAQARAYIFIDEAHITQALIWLSQRQKDNGCFRSSGSLLNNAIKGGVEDEVTLSAYITIALLEIPLTVTHPVVRNALFCLESAWKTAQEGDHGSHVYTKALLAYAFALAGNQDKRKEVLKSLNEEAVKKDNSVHWERPQKPKAPVGHFYEPQAPSAEVEMTSYVLLAYLTAQPAPTSEDLTSATNIVKWITKQQNAQGGFSSTQDTVVALHALSKYGAATFTRTGKAAQVTIQSSGTFSSKFQVDNNNRLLLQQVSLPELPGEYSMKVTGEGCVYLQTSLKYNILPEKEEFPFALGVQTLPQTCDEPKAHTSFQISLSVSYTGSRSASNMAIVDVKMVSGFIPLKPTVKMLERSNHVSRTEVSSNHVLIYLDKVSNQTLSLFFTVLQDVPVRDLKPAIVKVYDYYETDEFAIAEYNAPCSKDLGNA	2	4	–
A2M^3K, recombinant A2M with the Arg704Lys, Arg715Lys and Arg719Lys mutations (natural protein, human, UniProt P01023 24-1474, looked up, α2-macroglobulin, human, recombinant; the three bait region arginines replaced with lysines; The protein is secreted into the culture supernatant; also called A2M^3K (R704K R715K R719K); source: HEK293 Freestyle cells, transiently transfected, purified from the supernatant by the protocol used for plasma A2M) SVSGKPQYMVLVPSLLHTETTEKGCVLLSYLNETVTVSASLESVRGNRSLFTDLEAENDVLHCVAFAVPKSSSNEEVMFLTVQVKGPTQEFKKRTTVMVKNEDSLVFVQTDKSIYKPGQTVKFRVVSMDENFHPLNELIPLVYIQDPKGNRIAQWQSFQLEGGLKQFSFPLSSEPFQGSYKVVVQKKSGGRTEHPFTVEEFVLPKFEVQVTVPKIITILEEEMNVSVCGLYTYGKPVPGHVTVSICRKYSDASDCHGEDSQAFCEKFSGQLNSHGCFYQQVKTKVFQLKRKEYEMKLHTEAQIQEEGTVVELTGRQSSEITRTITKLSFVKVDSHFRQGIPFFGQVRLVDGKGVPIPNKVIFIRGNEANYYSNATTDEHGLVQFSINTTNVMGTSLTVRVNYKDRSPCYGYQWVSEEHEEAHHTAYLVFSPSKSFVHLEPMSHELPCGHTQTVQAHYILNGGTLLGLKKLSFYYLIMAKGGIVRTGTHGLLVKQEDMKGHFSISIPVKSDIAPVARLLIYAVLPTGDVIGDSAKYDVENCLANKVDLSFSPSQSLPASHAHLRVTAAPQSVCALRAVDQSVLLMKPDAELSASSVYNLLPEKDLTGFPGPLNDQDNEDCINRHNVYINGITYTPVSSTNEKDMYSFLEDMGLKAFTNSKIRKPKMCPQLQQYEMHGPEGLKVGFYESDVMGKGHAKLVHVEEPHTETVRKYFPETWIWDLVVVNSAGVAEVGVTVPDTITEWKAGAFCLSEDAGLGISSTASLRAFQPFFVELTMPYSVIRGEAFTLKATVLNYLPKCIRVSVQLEASPAFLAVPVEKEQAPHCICANGRQTVSWAVTPKSLGNVNFTVSAEALESQELCGTEVPSVPEHGRKDTVIKPLLVEPEGLEKETTFNSLLCPSGGEVSEELSLKLPPNVVEESARASVSVLGDILGSAMQNTQNLLQMPYGCGEQNMVLFAPNIYVLDYLNETQQLTPEIKSKAIGYLNTGYQRQLNYKHYDGSYSTFGERYGRNQGNTWLTAFVLKTFAQARAYIFIDEAHITQALIWLSQRQKDNGCFRSSGSLLNNAIKGGVEDEVTLSAYITIALLEIPLTVTHPVVRNALFCLESAWKTAQEGDHGSHVYTKALLAYAFALAGNQDKRKEVLKSLNEEAVKKDNSVHWERPQKPKAPVGHFYEPQAPSAEVEMTSYVLLAYLTAQPAPTSEDLTSATNIVKWITKQQNAQGGFSSTQDTVVALHALSKYGAATFTRTGKAAQVTIQSSGTFSSKFQVDNNNRLLLQQVSLPELPGEYSMKVTGEGCVYLQTSLKYNILPEKEEFPFALGVQTLPQTCDEPKAHTSFQISLSVSYTGSRSASNMAIVDVKMVSGFIPLKPTVKMLERSNHVSRTEVSSNHVLIYLDKVSNQTLSLFFTVLQDVPVRDLKPAIVKVYDYYETDEFAIAEYNAPCSKDLGNA	–	–	4
A2M^LNK/LNK, recombinant A2M with the Thr654Cys and Thr661Cys mutations (natural protein, human, UniProt P01023 24-1474, looked up, intersubunit disulfide between Cys654 and Cys661 of opposite subunits, α2-macroglobulin, human, recombinant; two cysteines introduced in the LNK region; The protein is secreted into the culture supernatant; also called A2M^LNK/LNK (T654C T661C); source: HEK293 Freestyle cells, transiently transfected, purified from the supernatant by the protocol used for plasma A2M) SVSGKPQYMVLVPSLLHTETTEKGCVLLSYLNETVTVSASLESVRGNRSLFTDLEAENDVLHCVAFAVPKSSSNEEVMFLTVQVKGPTQEFKKRTTVMVKNEDSLVFVQTDKSIYKPGQTVKFRVVSMDENFHPLNELIPLVYIQDPKGNRIAQWQSFQLEGGLKQFSFPLSSEPFQGSYKVVVQKKSGGRTEHPFTVEEFVLPKFEVQVTVPKIITILEEEMNVSVCGLYTYGKPVPGHVTVSICRKYSDASDCHGEDSQAFCEKFSGQLNSHGCFYQQVKTKVFQLKRKEYEMKLHTEAQIQEEGTVVELTGRQSSEITRTITKLSFVKVDSHFRQGIPFFGQVRLVDGKGVPIPNKVIFIRGNEANYYSNATTDEHGLVQFSINTTNVMGTSLTVRVNYKDRSPCYGYQWVSEEHEEAHHTAYLVFSPSKSFVHLEPMSHELPCGHTQTVQAHYILNGGTLLGLKKLSFYYLIMAKGGIVRTGTHGLLVKQEDMKGHFSISIPVKSDIAPVARLLIYAVLPTGDVIGDSAKYDVENCLANKVDLSFSPSQSLPASHAHLRVTAAPQSVCALRAVDQSVLLMKPDAELSASSVYNLLPEKDLTGFPGPLNDQDNEDCINRHNVYINGICYTPVSSCNEKDMYSFLEDMGLKAFTNSKIRKPKMCPQLQQYEMHGPEGLRVGFYESDVMGRGHARLVHVEEPHTETVRKYFPETWIWDLVVVNSAGVAEVGVTVPDTITEWKAGAFCLSEDAGLGISSTASLRAFQPFFVELTMPYSVIRGEAFTLKATVLNYLPKCIRVSVQLEASPAFLAVPVEKEQAPHCICANGRQTVSWAVTPKSLGNVNFTVSAEALESQELCGTEVPSVPEHGRKDTVIKPLLVEPEGLEKETTFNSLLCPSGGEVSEELSLKLPPNVVEESARASVSVLGDILGSAMQNTQNLLQMPYGCGEQNMVLFAPNIYVLDYLNETQQLTPEIKSKAIGYLNTGYQRQLNYKHYDGSYSTFGERYGRNQGNTWLTAFVLKTFAQARAYIFIDEAHITQALIWLSQRQKDNGCFRSSGSLLNNAIKGGVEDEVTLSAYITIALLEIPLTVTHPVVRNALFCLESAWKTAQEGDHGSHVYTKALLAYAFALAGNQDKRKEVLKSLNEEAVKKDNSVHWERPQKPKAPVGHFYEPQAPSAEVEMTSYVLLAYLTAQPAPTSEDLTSATNIVKWITKQQNAQGGFSSTQDTVVALHALSKYGAATFTRTGKAAQVTIQSSGTFSSKFQVDNNNRLLLQQVSLPELPGEYSMKVTGEGCVYLQTSLKYNILPEKEEFPFALGVQTLPQTCDEPKAHTSFQISLSVSYTGSRSASNMAIVDVKMVSGFIPLKPTVKMLERSNHVSRTEVSSNHVLIYLDKVSNQTLSLFFTVLQDVPVRDLKPAIVKVYDYYETDEFAIAEYNAPCSKDLGNA	4	–	–
Recombinant wild-type A2M (natural protein, human, UniProt P01023 24-1474, looked up, α2-macroglobulin, human, recombinant wild type; source: HEK293 Freestyle cells, transiently transfected, purified from the supernatant by the protocol used for plasma A2M) SVSGKPQYMVLVPSLLHTETTEKGCVLLSYLNETVTVSASLESVRGNRSLFTDLEAENDVLHCVAFAVPKSSSNEEVMFLTVQVKGPTQEFKKRTTVMVKNEDSLVFVQTDKSIYKPGQTVKFRVVSMDENFHPLNELIPLVYIQDPKGNRIAQWQSFQLEGGLKQFSFPLSSEPFQGSYKVVVQKKSGGRTEHPFTVEEFVLPKFEVQVTVPKIITILEEEMNVSVCGLYTYGKPVPGHVTVSICRKYSDASDCHGEDSQAFCEKFSGQLNSHGCFYQQVKTKVFQLKRKEYEMKLHTEAQIQEEGTVVELTGRQSSEITRTITKLSFVKVDSHFRQGIPFFGQVRLVDGKGVPIPNKVIFIRGNEANYYSNATTDEHGLVQFSINTTNVMGTSLTVRVNYKDRSPCYGYQWVSEEHEEAHHTAYLVFSPSKSFVHLEPMSHELPCGHTQTVQAHYILNGGTLLGLKKLSFYYLIMAKGGIVRTGTHGLLVKQEDMKGHFSISIPVKSDIAPVARLLIYAVLPTGDVIGDSAKYDVENCLANKVDLSFSPSQSLPASHAHLRVTAAPQSVCALRAVDQSVLLMKPDAELSASSVYNLLPEKDLTGFPGPLNDQDNEDCINRHNVYINGITYTPVSSTNEKDMYSFLEDMGLKAFTNSKIRKPKMCPQLQQYEMHGPEGLRVGFYESDVMGRGHARLVHVEEPHTETVRKYFPETWIWDLVVVNSAGVAEVGVTVPDTITEWKAGAFCLSEDAGLGISSTASLRAFQPFFVELTMPYSVIRGEAFTLKATVLNYLPKCIRVSVQLEASPAFLAVPVEKEQAPHCICANGRQTVSWAVTPKSLGNVNFTVSAEALESQELCGTEVPSVPEHGRKDTVIKPLLVEPEGLEKETTFNSLLCPSGGEVSEELSLKLPPNVVEESARASVSVLGDILGSAMQNTQNLLQMPYGCGEQNMVLFAPNIYVLDYLNETQQLTPEIKSKAIGYLNTGYQRQLNYKHYDGSYSTFGERYGRNQGNTWLTAFVLKTFAQARAYIFIDEAHITQALIWLSQRQKDNGCFRSSGSLLNNAIKGGVEDEVTLSAYITIALLEIPLTVTHPVVRNALFCLESAWKTAQEGDHGSHVYTKALLAYAFALAGNQDKRKEVLKSLNEEAVKKDNSVHWERPQKPKAPVGHFYEPQAPSAEVEMTSYVLLAYLTAQPAPTSEDLTSATNIVKWITKQQNAQGGFSSTQDTVVALHALSKYGAATFTRTGKAAQVTIQSSGTFSSKFQVDNNNRLLLQQVSLPELPGEYSMKVTGEGCVYLQTSLKYNILPEKEEFPFALGVQTLPQTCDEPKAHTSFQISLSVSYTGSRSASNMAIVDVKMVSGFIPLKPTVKMLERSNHVSRTEVSSNHVLIYLDKVSNQTLSLFFTVLQDVPVRDLKPAIVKVYDYYETDEFAIAEYNAPCSKDLGNA	2	–	–
